One molecule from US20050170451A1 can be followed below.

Experiment [1] has as its target soluble fragment of human IgE receptor (FcεRI) α chain (human) (UniProt P12319). Nature of the experiment: SPR (BIAcore), purified scFv. For orientation: SPR reads the build-up and loss of mass on a sensor chip optically.
Experiment [2] has the same target. The experiment in a line: competition ELISA: inhibition of binding of biotin-labeled FcεRI α chain (55 ng/mL) to immobilized human IgE.
For experiment [3] the target is unchanged. Nature of the experiment: competition ELISA: inhibition of binding of biotin-labeled FcεRI α chain (55 ng/mL) to immobilized human IgE, at scFv >= 100 µg/ml. In general terms: ELISA stands for enzyme-linked immunosorbent assay.

UniProt P12319, sequence (P12319 26-197 limits assumed): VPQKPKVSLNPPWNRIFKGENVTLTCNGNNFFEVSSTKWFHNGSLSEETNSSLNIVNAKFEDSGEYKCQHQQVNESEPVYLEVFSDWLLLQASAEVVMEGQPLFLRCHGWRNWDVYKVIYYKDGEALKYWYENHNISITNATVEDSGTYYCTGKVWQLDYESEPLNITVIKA

B1: αFcR51 scFv (human anti-human FcεRI α chain single-chain Fv clone) (scFv, part only; not given: VH-VL linker and E tag, V domains shown, not shown: another chain or arm of the molecule; small tags and cut ends)
VH: QVQLQEWGGGLVQPGGSLRLSCAASGFTVSSNYMSWVRQAPGKGLEWVSVIYRGGSGDNTYYAGSVKGRFTISRDNSKNTVYLQMNSLRAEDTAVYYCVRSSDVGYGILRGYMDVWGKGTTVTVSS
VL: HVILTQPPSVSVSPGQTARIPCSGQDLTNKYVSWYQLQSGQSPALVIYEDSKRPSGIPERFSGSNSGDTATLTITGTQAADEADFFCQAYDTNGWVFGAGTKLTVL
In general, Kd refers to the free concentration of one partner at which half of the binding sites on the other are occupied at equilibrium, for simple one-to-one binding. Lower therefore signals tighter binding. For B1, the Kd in experiment [1] worked out at 5.8 nM. In experiment [2], this molecule yielded a scFv concentration at which inhibition is seen greater than 0.1 µg/mL. The molecule also had an inhibition rate in experiment [3] greater than 90%.
